# Assay results published in patent US20230372552A1, “CONJUGATE OR ITS SALT COMPRISING A GASTRIN-RELEASING PEPTIDE RECEPTOR ANTAGONIST AND USES THEREOF” (ORANO MED, priority 2020, published 2023).
# What was measured:
# [1] = ^203Pb-conjugate biodistribution study in tumor-free immunocompetent mice
# Experimental: After that, the mice were divided in 6 groups of 10, denoted as groups A, B, C, D, E and F respectively, each comprising 5 male and 5 female.
# The mice of group A were sacrificed at 5 min post-dose injection; the mice of group B were sacrificed at 30 min post-dose injection; the mice of group C were sacrificed at 1 hour post-dose injection; the mice of group D were sacrificed at 4 hours post-dose injection whereas the mice of group E were sacrificed at 24 hours post-dose injection.
# The mice of group F were placed in metabolic cages and their urinary and fecal excretions were collected at 4 hours, 24 hours and 48 hours post-dose injection; they were sacrificed at 48 hours post-dose injection. […]
# The tubes were counted for two min. A standard consisting of 5 μL of the solution injected to the mice was also counted for each group of mice. […]
# The excretions of the mice of group F were also counted.
# The percent injected dose per gram, noted as % ID/g, was calculated for each organ collected (mean±standard deviation) whilst the percent injected dose, noted as % ID, was calculated for the excretions of the mice of group F (mean±standard deviation).
# [2] = Comparative biodistribution, ACMP linker, tumor-free immunocompetent mice; format: in vivo, immunocompetent CD1 female mice; conditions: 4 hours post-dose injection
# Experimental: The study was aimed at assessing the biodistribution […] conjugate of the invention in that it comprises a linker constituted by a 4-amino-(1-carboxymethyl)piperidinyl group, of formula: […]
# 5 immunocompetent CD1 female mice, 7-8 weeks old, were injected intravenously with one ^212Pb-ACMP-conjugate dose.
# The mice were sacrificed at 4 hour post-dose injection.
# (§1) The tubes were counted for two min. Standards consisting of 5 μL of the solutions injected to the mice were also counted. The background was automatically subtracted from the counts. The standards were also used for decay correction.
# subcutaneous PC-3 tumors [3] = assay: Comparative biodistribution, change of chelator (DOTAM vs DOTA), xenograft-bearing mice; format: in vivo, athymic nude mice; conditions: over the first 24 hours
# Text: The instant study was aimed at comparing the biodistribution of the conjugate of the invention, labelled with ^212Pb, in athymic nude mice bearing a human prostate cancer cell tumor with that of a conjugate also labelled with ^212Pb and only differing from the conjugate of the invention in that the chelator corresponds to DOTA (1,4,7,10-tetraazacyclododecane-1,4,7,10-tetraacetic acid) and is of formula:
# 30 male athymic nude mice, 7-8 weeks old and weighting 27.90±1.9 g at study initiation, were injected subcutaneously, into the right flank, with 10^6 PC-3 human prostate cancer cells in 100 μL of RPMI-1640 medium/Matrigel™ (v/v: 1/1). The tumors were let grow until they reached 200-300 mm^3.
# Each mouse of groups A, B and C received intravenously one ^212Pb-DOTAM-conjugate dose whilst each mouse of groups […] received intravenously one ^212Pb-DOTA-conjugate dose.
# as §1
# subcutaneous PC-3 tumors [4] = assay: ^212Pb-conjugate biodistribution study in xenograft-bearing mice (10 μCi per 14 ng); format: in vivo, athymic nude mice
# Experimental: 15 male athymic nude mice, 7-8 weeks old and weighting 27.74±1.87 g at study initiation, were injected subcutaneously, into the right flank, with 10^6 PC-3 human prostate cancer cells in 100 μL of RPMI-1640 medium/Matrigel™ (v/v: 1/1). […] Then each mouse received intravenously (into a tail vein) one ^212Pb-conjugate dose. […] The tubes were counted for two min. […] The background was automatically subtracted from the counts. The standard was also used for decay correction.
structure (smiles),measurement,setting,value
"CC(C)C[C@H](NC(=O)C[C@H](O)[C@H](CC(C)C)NC(=O)[C@H](Cc1c[nH]cn1)NC(=O)CNC(=O)[C@@H](NC(=O)[C@H](C)NC(=O)[C@H](Cc1c[nH]c2ccccc12)NC(=O)[C@H](CCC(N)=O)NC(=O)[C@@H](Cc1ccccc1)NC(=O)CCNC(=O)CCNC(=O)CN1CCN(CC(N)=O)CCN(CC(N)=O)CCN(CC(N)=O)CC1)C(C)C)C(N)=O [^203Pb-conjugate, metal not drawn]","route of elimination (urinary, fecal excretion)","[1]; excretions collected at 4, 24 and 48 hours post-dose",mainly eliminated by renal excretion
same,biodistribution profile,"[1]; male and female mice, 5 min to 48 hours, 10 μCi per 28 ng",safe biodistribution profile
"CC(C)C[C@H](NC(=O)C[C@H](O)[C@H](CC(C)C)NC(=O)[C@H](Cc1c[nH]cn1)NC(=O)CNC(=O)[C@@H](NC(=O)[C@H](C)NC(=O)[C@H](Cc1c[nH]c2ccccc12)NC(=O)[C@H](CCC(N)=O)NC(=O)[C@@H](Cc1ccccc1)NC(=O)CN1CCC(NC(=O)CN2CCN(CC(N)=O)CCN(CC(N)=O)CCN(CC(N)=O)CC2)CC1)C(C)C)C(N)=O [^212Pb-ACMP-conjugate, metal not drawn]",safety profile relative to the -β-Ala-β-Ala- linker conjugate,[2],significantly lower safety profile
same,uptake in kidneys relative to the -β-Ala-β-Ala- linker conjugate,[2]; 10 μCi per 4.1 ng,5 times
"CC(C)C[C@H](NC(=O)C[C@H](O)[C@H](CC(C)C)NC(=O)[C@H](Cc1c[nH]cn1)NC(=O)CNC(=O)[C@@H](NC(=O)[C@H](C)NC(=O)[C@H](Cc1c[nH]c2ccccc12)NC(=O)[C@H](CCC(N)=O)NC(=O)[C@@H](Cc1ccccc1)NC(=O)CCNC(=O)CCNC(=O)CN1CCN(CC(N)=O)CCN(CC(N)=O)CCN(CC(N)=O)CC1)C(C)C)C(N)=O [^212Pb-conjugate, metal not drawn]",tumor retention versus ^212Pb-DOTA-conjugate,subcutaneous PC-3 tumors [3],higher
same,tumor/blood ratio,"subcutaneous PC-3 tumors [4]; i.v., 10 μCi per 14 ng",high
same,clearance,"subcutaneous PC-3 tumors [4]; mouse, in vivo, iv",fast clearance
